Assay results as given in patent publication US20020062500A1, “Hypersensitive response eliciting domains and use thereof” (priority 2000, published 2002).
Ends that are not written are not given here. Peptide text beside a SMILES is read from it.

Tests used:
[1] = cited from earlier work; for heat stable (description): description of known elicitors
[2] = description of known elicitors; cited from earlier work
[3] = description of known elicitors; cited from earlier work; remark: listed apart in the source
[4] = Solubility of expressed or synthesized polypeptides; type: physicochemical
Procedure: For proteins expressed in E. coli that were difficult to dissolve in water, total cells were resuspended and sonicated in 8 M urea buffer (0. IM Na-phosphate, 10 mM Tris buffer, pH8.0). The total cell lysate was centrifuged, and supernatants were collected. Ni-agarose was added into the supernatants and mixed gently at room temperature for 30 min. The Ni-agarose resin was washed with buffer (8 M urea, 0.1 M Na-phosphate, 10 mM Tris buffer, pH6.3). The proteins were eluted with elution buffer (8 M urea, 0.1 M EDTA, 0.1 M Na-phosphate, 10 mM Tris buffer, pH 6.3) and dialyzed against buffer (pH 8.5, 10 mM Tris) with stepwise decreased urea. If the proteins still were insoluble in buffer, the solution pH was adjusted to 9 to 11 and sonicated at room temperature for 1 to 5 min.
Chemically synthesized polypeptides were dissolved in 10 mM Tris, pH 6.5 to 11 buffers depending on their solubility.

[5] = system: tobacco leaves (cv. Xanth); conditions: in vivo
TMV = assay: Percentage of TMV reduction on tobacco leaves; type: in vivo
tomato = assay: Plant growth enhancement with tomato; type: in vivo; conditions: 10 μg/ml
tobacco = conditions: in vivo; cited from earlier work

Molecule: hypersensitive response elicitor polypeptide or protein from Xanthomonas campestris pv. pelargonii: 20 kDa elicitor that includes the amino acid sequence of SEQ. ID. No. 18 (SSQQSPSAGSEQQLDQLLAM; Xanthomonas campestris pv. pelargonii)
- heat stable (description) [1]: heat stable
- protease sensitive [2]: protease sensitive

Molecule: SEQ. ID. No. 8: Protein encoded by the dspE gene of Erwinia amylovora, about 198 kDa
- pI (description) [3]: 8.98

Molecule: CSCC[C@H](NC(=O)[C@H](CCSC)NC(=O)[C@H](CO)NC(=O)[C@H](CCSC)NC(=O)[C@H](CCSC)NC(=O)[C@H](CCSC)NC(=O)[C@H](CCSC)NC(=O)[C@H](CCSC)NC(=O)CNC(=O)[C@@H](NC(=O)[C@H](CC(C)C)NC(=O)[C@H](CC(C)C)NC(=O)CNC(=O)[C@H](C)NC(=O)[C@H](CC(C)C)NC(=O)[C@H](CCC(N)=O)NC(=O)[C@H](CC(N)=O)NC(=O)[C@@H](NC(=O)[C@@H](NC(=O)[C@H](CC(=O)O)NC(=O)[C@H](CC(N)=O)NC(=O)[C@H](CCC(N)=O)NC(=O)[C@H](CC(N)=O)NC(=O)CNC(=O)CNC(=O)CNC(=O)[C@H](CC(C)C)NC(=O)CN)[C@@H](C)O)C(C)C)[C@@H](C)O)C(=O)O [HrpNEa4370] (H-GLGGGNQNDTVNQLAGLLTGMMMMMSMM-OH; N-terminus and C-terminus assumed)
- Solubility (Source column: Partial soluble) ([4]; Table 4, synthesized peptide, cell wraps over two lines 'Partial' 'soluble'): Partial

Molecule: (NC): Superharpin building block HrpNEa140-180 with his-tag leader (QNDDSTSGTDSTSDSSDPMQQLLKMFSEIMQSLFGDGQDGT; also: His-tag leader; UniProt Q01099 140-180, looked up, fragment)
- Soluble ([4]; Table 7, building blocks with his-tag leader): Yes

Molecule: HrpNEa137180: E. coli expressed peptide, amino acids 137-180 of HrpNEa, His-tag fusion (STSQNDDSTSGTDSTSDSSDPMQQLLKMFSEIMQSLFGDGQDGT; also: His-tag fusion; UniProt Q01099 137-180, looked up, fragment)
- HR activity in tobacco [5]: elicit HR activity
- HR* (eliciting concentration) [5]: <5 µg/mL

Molecule: HrpNEa140176: Synthesized peptide, amino acids 140-176 of HrpNEa, acidic plus helix units (QNDDSTSGTDSTSDSSDPMQQLLKMFSEIMQSLFGDG; UniProt Q01099 140-176, looked up, fragment)
- HR activity (eliciting concentration) [5]: + < 5 μg/ml
- HR activity in tobacco [5]: full activity of HR
- HR* (eliciting concentration) [5]: <5 µg/mL

B1: HrpNEch: Harpin protein from E. chrysanthemi, subfamily N (protein, listed as Erwinia chrysanthemi)
chain: MQITIKAHIGGDLGVSGLGAQGLKGLNSAASSLGSSVDKLSSTIDKLTSALTSMMFGGALAQGLGASSKGLGMSNQLGQSFGNGAQGASNLLSVPKSGGDALSKMFDKALDDLLGHDTVTKLTNQSNQLANSMLNASQMTQGNMNAFGSGVNNALSSILGNGLGQSMSGFSQPSLGAGGLQGLSGAGAFNQLGNAIGMGVGQNAALSALSNVSTHVDGNNRHFVDKEDRGMAKEIGQFMDQYPEIFGKPEYQKDGWSSPKTDDKSWAKALSKPDDDGMTGASMDKFRQAMGMIKSAVAGDTGNTNLNLRGAGGASLGIDAAVVGDKIANMSLGKLANA
- heat stable (description) [1]: heat stable

B2: HrpWEa: Harpin protein from E. amylovora, subfamily W, 447 amino acids (protein, listed as Erwinia amylovora)
chain: MSILTLNNNTSSSPGLFQSGGDNGLGGHNANSALGQQPIDRQTIEQMAQLLAELLKSLLSPQSGNAATGAGGNDQTTGVGNAGGLNGRKGTAGTTPQSDSQNMLSEMGNNGLDQAITPDGQGGGQIGDNPLLKAMLKLIARMMDGQSDQFGQPGTGNNSASSGTSSSGGSPFNDLSGGKAPSGNSPSGNYSPVSTFSPPSTPTSPTSPLDFPSSPTKAAGGSTPVTDHPDPVGSAGIGAGNSVAFTSAGANQTVLHDTITVKAGQVFDGKGQTFTAGSELGDGGQSENQKPLFILEDGASLKNVTMGDDGADGIHLYGDAKIDNLHVTNVGEDAITVKPNSAGKKSHVEITNSSFEHASDKILQLNADTNLSVDNVKAKDFGTFVRTNGGQQGNWDLNLSHISAEDGKFSFVKSDSEGLNVNTSDISLGDVENHYKVPMSANLKVAE
- heat stable (description) [1]: heat stable
- protease sensitive [2]: protease sensitive

B3: SEQ. ID. No. 10: Protein encoded by the dspF gene, about 16 kDa (protein, listed as Erwinia amylovora)
chain: MTSSQQRVERFLQYFSAGCKTPIHLKDGVCALYNEQDEEAAVLEVPQHSDSLLLHCRIIEADPQTSITLYSMLLQLNFEMAAMRGCWLALDELHNVRLCFQQSLEHLDEASFSDIVSGFIEHAAEVREYIAQLDESSAA
- pI (description) [3]: 4.45

B4: HrpNEa: Harpin hypersensitive response elicitor protein from E. amylovora, 403 amino acids (protein, listed as Erwinia amylovora)
chain: MSLNTSGLGASTMQISIGGAGGNNGLLGTSRQNAGLGGNSALGLGGGNQNDTVNQLAGLLTGMMMMMSMMGGGGLMGGGLGGGLGNGLGGSGGLGEGLSNALNDMLGGSLNTLGSKGGNNTTSTTNSPLDQALGINSTSQNDDSTSGTDSTSDSSDPMQQLLKMFSEIMQSLFGDGQDGTQGSSSGGKQPTEGEQNAYKKGVTDALSGLMGNGLSQLLGNGGLGGGQGGNAGTGLDGSSLGGKGLQNLSGPVDYQQLGNAVGTGIGMKAGIQALNDIGTHRHSSTRSFVNKGDRAMAKEIGQFMDQYPEVFGKPQYQKGPGQEVKTDDKSWAKALSKPDDDGMTPASMEQFNKAKGMIKRPMAGDTGNGNLQARGAGGSSLGIDAMMAGDAINNMALGKLGAA
- Elicit HR [5]: 1—3 μg/ml
- % TMV reduction on tobacco (TMV; 1 μg/ml): 10%
- % TMV reduction on tobacco (TMV; 10 μg/ml): 55%
- % Plant Growth Enhancement (tomato): 11.68%
- Soluble ([4]; Table 8): Yes
- heat stable at 100° C. ([1]; 100° C.): at least 10 minutes
- pI (description) [3]: approximately 4.3

B5: 98 residue of N-terminal HrpNEa fragment: Smallest bacterially produced HrpNEa peptide with HR-eliciting activity (Laby 1997) (protein, UniProt Q01099 1-98, looked up, fragment)
chain: MSLNTSGLGASTMQISIGGAGGNNGLLGTSRQNAGLGGNSALGLGGGNQNDTVNQLAGLLTGMMMMMSMMGGGGLMGGGLGGGLGNGLGGSGGLGEGL
- HR elicitation (literature) (tobacco): displayed HR-eliciting activity

B6: amino acids 137 to 204 of HrpNEa: HR active fragment of HrpNEa isolated after digestion with protease (protein, UniProt Q01099 137-204, looked up, fragment)
chain: STSQNDDSTSGTDSTSDSSDPMQQLLKMFSEIMQSLFGDGQDGTQGSSSGGKQPTEGEQNAYKKGVTD
- HR elicitation (literature) (tobacco): hypersensitive response active
